The labels stand for the following.
B1: OR4K15 (parent)
chain: GUUAACGGUCAUAGGCCAUGGAAACUAGGAGCACCAUUUCGCUGCCAGUGAAGAAAUGAACAAAGAAAAUCUGGGCCAGGCAGGCAUCAAAAGAAAUAGUCUUGCGCUCAACCAGAAAGUCUGUAAUCAUUUUAAGGGUA

This data set covers variants of B1. The data set can be described thus: self-cleavage, relative activity (ratio to wild type); higher = more cleavage; in vitro, sequencing; the parent is a self-cleaving ribozyme.
For the variant A51U G74A, the self-cleavage stood at 0.22.

G31C A125G: the self-cleavage is 0.93.

As to U37C A98U, the self-cleavage was 1.84.

G29A U130C: the self-cleavage was found to be 1.7.

Turning to A91G U122C, the self-cleavage is 0.42.

As for U87A U100G, the self-cleavage worked out at 2.13.

For A4G G137U, the self-cleavage is 2.

A90G A126G: the self-cleavage turned out to be 0.95.

For the variant A67C U131C, the self-cleavage stood at 1.86.

As for A51U U124C, the self-cleavage was determined as 0.77.

With G8U A69G, the self-cleavage is 2.76.

For A18U A110C, the self-cleavage was found to be 0.23.

Turning to A134G, the self-cleavage came to 1.15.

As for A51G U87C, the self-cleavage was determined as 0.86.

For the variant U2C U131G, the self-cleavage came out at 1.08.

For U49A U70A, the self-cleavage worked out at 0.66.

Turning to A56G U72A, the self-cleavage turned out to be 0.26.

For U39C A140C, the self-cleavage was 1.79.

On to A110G A125G, for which the self-cleavage stood at 0.07.

As for U108C G115A, the self-cleavage came out at 0.

With A69U U87A, the self-cleavage came out at 1.79.

U19C U127C: the self-cleavage worked out at 0.95.

For the variant U43C A110U, the self-cleavage was found to be 1.68.

In the case of A62U U103G, the self-cleavage is 0.07.

Regarding U9C U37C, the self-cleavage turned out to be 1.57.

With G31A A47U, the self-cleavage was 0.83.

For U2C A55G, the self-cleavage turned out to be 1.15.

For the variant A13G A30G, the self-cleavage was determined as 1.

As to A96G A126U, the self-cleavage came to 1.49.

As to U108C A118C, the self-cleavage turned out to be 0.

For the variant U9A U124C, the self-cleavage came out at 0.91.

For the variant A54G C85U, the self-cleavage turned out to be 1.39.

U9C U70A: the self-cleavage stood at 0.97.

As for U39A A66G, the self-cleavage stood at 1.87.

Turning to A59G U108A, the self-cleavage came out at 0.01.

For C6A C61U, the self-cleavage is 0.76.

Take U72C A91C: the self-cleavage is 0.27.

Turning to A47G A90C, the self-cleavage is 1.68.

Consider A11U G84A, for which the self-cleavage was determined as 2.42.

Regarding U39A U43C, the self-cleavage was determined as 1.95.

In the case of A56G A135G, the self-cleavage turned out to be 1.61.

For A27U U97C, the self-cleavage worked out at 1.75.

Turning to A13U A111G, the self-cleavage came out at 0.03.

On to C85U A125U, for which the self-cleavage is 1.35.

With G8A A52G, the self-cleavage was 2.73.

Regarding A116G A126G, the self-cleavage was found to be 0.12.

For A96U A118G, the self-cleavage worked out at 1.17.

With U72G A118G, the self-cleavage was determined as 0.22.

Turning to A89G A135U, the self-cleavage stood at 1.15.

On to A134G A135C, for which the self-cleavage came out at 1.54.

Regarding G123A, the self-cleavage was determined as 1.06.

As for A5U A90G, the self-cleavage was determined as 0.78.

Consider A54G C105U, for which the self-cleavage came out at 0.36.

On to A5U G29U, for which the self-cleavage turned out to be 1.39.

Take A24G A82U: the self-cleavage is 0.31.

In the case of A18G A47U, the self-cleavage worked out at 1.1.

On to A5U A36U, for which the self-cleavage amounted to 2.27.

On to A66G A69C, for which the self-cleavage is 1.67.

For the variant A33G A91U, the self-cleavage amounted to 0.94.

For U39C A47U, the self-cleavage stood at 0.79.

Regarding A64C U102A, the self-cleavage was 0.71.

For A4G U132A, the self-cleavage was 0.44.

For A111G U130C, the self-cleavage was determined as 0.01.

Turning to A30G A60G, the self-cleavage is 0.96.

For A33U G74C, the self-cleavage was 0.05.

Consider U39C G99A, for which the self-cleavage was found to be 0.3.

As for U38C A94C, the self-cleavage stood at 1.41.

Regarding U102A A116C, the self-cleavage stood at 0.21.

As for U49A C105U, the self-cleavage turned out to be 0.15.

A24G C85G: the self-cleavage stood at 0.97.

Take A68U U127A: the self-cleavage was 2.58.

On to A63G A140U, for which the self-cleavage was found to be 1.52.

Take A54U U120C: the self-cleavage came out at 0.32.

Take A30G G104A: the self-cleavage stood at 0.08.

Regarding A55G C113U, the self-cleavage stood at 0.03.

On to A11U A52C, for which the self-cleavage was found to be 1.27.

Turning to U39C C45G, the self-cleavage was 1.5.

In the case of A33G A114C, the self-cleavage came to 0.05.

As to A13G A91C, the self-cleavage was found to be 1.81.

Take A33U U139C: the self-cleavage is 1.86.

Turning to G21U U87A, the self-cleavage was 1.31.

A22U G74A: the self-cleavage came out at 0.1.

For A86U A95G, the self-cleavage was 2.02.

On to A94U A118G, for which the self-cleavage is 1.51.

For the variant A23U A92G, the self-cleavage came out at 1.46.

For G53U, the self-cleavage was found to be 1.7.

For the variant A89G A140U, the self-cleavage turned out to be 1.23.

Consider A24G U37C, for which the self-cleavage worked out at 1.12.

On to A90G U108A, for which the self-cleavage was determined as 0.02.

A90G U108C: the self-cleavage turned out to be 0.02.

As to A90G A111G, the self-cleavage was 0.02.

With G8U A126G, the self-cleavage was found to be 0.32.

Consider A23G U108G, for which the self-cleavage is 0.

As for A55U A68G, the self-cleavage was determined as 1.44.

With G7C, the self-cleavage was 1.07.

In the case of A82G A118U, the self-cleavage amounted to 0.44.

As for A24G U102C, the self-cleavage came out at 1.48.

As for U43A A78U, the self-cleavage turned out to be 1.02.

A36G A114G: the self-cleavage worked out at 1.06.

For the variant U72C A110G, the self-cleavage was 0.06.

As to G137A, the self-cleavage came out at 1.12.

For G15A A86G, the self-cleavage was found to be 1.6.

For A64G A125G, the self-cleavage came out at 0.28.

U3C U124C: the self-cleavage stood at 0.9.

As to A36U U102C, the self-cleavage came out at 2.06.

For the variant A18U U130C, the self-cleavage stood at 1.37.

On to U72C G104A, for which the self-cleavage came to 0.01.

Consider A30G U57A, for which the self-cleavage is 1.15.

For G48A A90G, the self-cleavage came to 0.76.

As for U57G A140U, the self-cleavage worked out at 1.23.

For A64G U130C, the self-cleavage was determined as 0.45.

Turning to G14A A86G, the self-cleavage was 1.02.

In the case of U70C U87C, the self-cleavage amounted to 0.09.

A78C A110G: the self-cleavage stood at 0.13.

For A5U A126G, the self-cleavage worked out at 1.07.

As to G28U A89U, the self-cleavage came to 2.26.

Consider U37C G115U, for which the self-cleavage is 0.37.

In the case of G50A A92U, the self-cleavage amounted to 2.15.

On to A54U A59G, for which the self-cleavage was 1.75.

For A62G U72G, the self-cleavage came to 0.22.

For U103A, the self-cleavage was found to be 0.39.

Take A51G A94G: the self-cleavage worked out at 1.2.

Take A78G A92G: the self-cleavage came to 0.13.

Take G14A A36U: the self-cleavage is 0.83.

In the case of U139C A140G, the self-cleavage was 1.57.

As to C42U C128U, the self-cleavage worked out at 1.41.

For G53C U57G, the self-cleavage came out at 0.65.

As for A18U A59G, the self-cleavage came to 1.2.

Turning to A60C U108A, the self-cleavage amounted to 0.04.

As to A114G A117U, the self-cleavage amounted to 0.4.

For C45U U70C, the self-cleavage is 0.82.

As for U103C A140U, the self-cleavage was 1.14.

With U19G A60G, the self-cleavage turned out to be 1.61.

With A23G A118C, the self-cleavage was 0.5.

Take A33C A66G: the self-cleavage was found to be 1.88.

Regarding A82G A125G, the self-cleavage is 0.23.

On to U12C C85A, for which the self-cleavage stood at 0.75.

As for U43A A89G, the self-cleavage stood at 1.77.

As to A59G A69C, the self-cleavage is 0.6.

A63G U70G: the self-cleavage is 1.56.

For A89G G123A, the self-cleavage is 1.52.

As to U2C A78C, the self-cleavage turned out to be 0.4.

As for C77U A90G, the self-cleavage amounted to 2.13.

Turning to A47U A117U, the self-cleavage was 0.71.

Consider A68G A69C, for which the self-cleavage amounted to 0.94.

U120C U132C: the self-cleavage stood at 0.85.

U70C C113U: the self-cleavage was determined as 0.02.

With A56U U57C, the self-cleavage was found to be 1.47.

Regarding U38A U49C, the self-cleavage is 1.72.

Regarding A27G A129G, the self-cleavage is 1.06.

Turning to A96G A125U, the self-cleavage is 1.42.

Turning to A66G U102C, the self-cleavage came out at 1.84.

In the case of A36U C105U, the self-cleavage worked out at 0.17.

In the case of C25A A33G, the self-cleavage is 0.9.

Regarding A78U A129C, the self-cleavage was determined as 0.14.

With A22U A69G, the self-cleavage came to 1.

Take A94G A135U: the self-cleavage was found to be 1.8.

Consider A24G U108A, for which the self-cleavage came to 0.04.

As for A95G U97C, the self-cleavage came out at 1.23.

A36G U39C: the self-cleavage turned out to be 0.79.

On to A36U A56C, for which the self-cleavage is 1.49.

Regarding G7A U102C, the self-cleavage is 1.75.

As to G48C A63G, the self-cleavage was 1.45.

With G31A A82U, the self-cleavage was 0.14.

Turning to A92U A110U, the self-cleavage worked out at 1.74.

Regarding A36C G48A, the self-cleavage is 1.28.

For the variant A27U A54G, the self-cleavage turned out to be 1.64.

Values taken from the RNAGym collection of RNA variant scans (doi:10.7554/elife.90254).
